# US20230240988A1, “FLUID GEL COMPOSITIONS” (The University of Birmingham, priority 2020, published 2023)
# B1: Proteinase K: extracellular matrix remodelling agent, proteinase (protein, UniProt P06873 106-384, looked up)
# Proteinase K: AAQTNAPWGLARISSTSPGTSTYYYDESAGQGSCVYVIDTGIEASHPEFEGRAQMVKTYYYSSRDGNGHGTHCAGTVGSRTYGVAKKTQLFGVKVLDDNGSGQYSTIIAGMDFVASDKNNRNCPKGVVASLSLGGGYSSSVNSAAARLQSSGVMVAVAAGNNNADARNYSPASEPSVCTVGASDRYDRRSSFSNYGSVLDIFGPGTSILSTWIGGSTRSISGTSMATPHVAGLAAYLMTLGKTTAASACRYIADTANKGDLSNIPFGTVNLLAYNNYQA
# How the values were obtained:
# fibrin gel = assay: Matrix breakdown assay; format: biochemical; conditions: 60° C.; images at various timepoints
# Procedure: • Add proteinase K (10 mg) to PBS to make a total volume of 1 ml. • Mix well on a vortex mixer until dissolved.
# • Add 0.9 ml of 3% v/v PEG-DA fluid gel prepared according to Example 5.3 to an Eppendorf. • To each gel add 0.1 ml of active in PBS. • Mix well using a vortex mixer. • Refrigerate for 24 hours before testing.
# 0.5 ml of fibrin gel (8.5 mg/ml) was formed in the wells of a 24 well plate. • 0.5 ml of PBS was added to each well. • 0.1 ml of fluid gel containing active was added to a trans-well insert and placed above the fibrin gel. • Samples were incubated at 60° C. to activate the proteinase K. • Images were taken at various timepoints and compared to (a) the control wells containing only fibrin gel+PBS; and (b) wells containing fibrin gel+proteinase k (no fluid gel carrier).
# [1] = Release assay of active agents from PEG-DA fluid gel (trans-well, UV/Vis); format: physicochemical; conditions: 3% v/v PEG-DA fluid gel (500 rpm), PBS 37° C., 5 hrs
# Procedure: • Active amounts: […] • Standard concentrations of active in PBS were prepared. • Standards were pipetted into a quartz cuvette (1 mm pathlength). • […] spectroscopy was used to measure absorbance between 200 and 700 nm wavelength. • Curves were plotted and used to determine standard curves which were used to determine concentrations. • 0.5 ml PBS was added to the well of a 24 well plate. • The PBS was incubated at 37° C. to equilibrate. 0.1 ml of the fluid gel containing active was placed in a trans-well insert. • The trans-well insert was placed into a well containing PBS. • After a given time period the trans-well insert was removed and placed in a fresh well of PBS. • The release media was then removed and analysed using […] spectroscopy. Concentrations were derived from the standard curves and cumulative release plotted as a function of time.
molecule,measurement,setting,value
B1,fibrin gel break down,fibrin gel,faster
same,release of active agent from fluid gel,[1],able to release
